# Measurements published in patent publication US20190359687A1 (Bayer, published 2019).
# Changes are numbered by the printed parent chain. Names may count otherwise.
# T1: recombinant human glycophorin A ectodomain protein (human, UniProt P02724 20-91)
# T1 construct: 72 amino acids of the extracellular region; also called Hu-rec GPA
# T1 sequence: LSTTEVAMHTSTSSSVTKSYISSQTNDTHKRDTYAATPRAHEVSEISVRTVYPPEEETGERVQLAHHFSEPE
# T2: recombinant human GPA ectodomain (human, UniProt P02724 20-91)
# T2 construct: also called recombinant hGPA ECD; recGPA
# T2 sequence: T1 sequence
# T3: human glycophorin A on human red blood cells or red blood cell membranes (human, UniProt P02724 20-150)
# T3 construct: whole, on cells; also called hRBC; human RBC membranes
# T3 sequence (looked up): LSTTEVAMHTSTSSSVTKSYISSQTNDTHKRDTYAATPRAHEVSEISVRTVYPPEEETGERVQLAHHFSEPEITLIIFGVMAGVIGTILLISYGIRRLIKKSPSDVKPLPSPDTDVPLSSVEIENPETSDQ
# T4: native human glycophorin A protein (human, UniProt P02724 20-150)
# T4 construct: mature; also called Hu-nat GPA
# T4 sequence (looked up): T3 sequence (looked up)
# T5: purified human glycophorin A protein (Sigma, cat # G5017) (human, UniProt P02724 20-150)
# T5 construct: mature; also called Sigma hGPA; Sigma GPA
# T5 sequence (looked up): T3 sequence (looked up)
# T6: human glycophorin A in the red blood cell membrane (human, UniProt P02724 20-150)
# T6 construct: whole, on cells; used for intact RBC, isolated RBC membranes and transfected cells; the assay field tells which; also called GPA; hGPA
# T6 sequence (looked up): T3 sequence (looked up)
# B1: TPP-5339, Hu6C12-24 Fab variant VH: (E1Q, I48M, L70M, T72R, K74T, R84S, D89E, Q97A, T98R) (Fab, V domains shown)
# VH: QVQLVQSGAEVKKPGASVKVSCKASGYTFTTYTIHWVRQAPGQGLEWMGYINPSSDYTRYNPKFKDRVTMTRDTSTSTAYMELSSLRSEDTAVYYCARGTRDYWGQGTTVTVSS
# VL: DIQLTQSPSFLSASVGDRVTITCSAASSVSYIYWFQQKPGKAPKLLIYSTSTLPSGVPSRFSGSGSGTEYTLTISSLQPEDFATYYCHQRNSFPFTFGQGTKLEIKR
# notes: Built on the parental Fab TPP-4935
# B2: TPP-5338, Hu6C12-24 Fab variant VH: (E1Q, I48M, L70M, T72R, K74T, R84S, D89E) (Fab, V domains shown)
# VH: B1 VH with A97Q, R98T
# VL: B1 VL
# notes: as for B1
# B3: TPP-5337, Hu6C12-24 Fab variant VH: (Q97A, T98R) (Fab, V domains shown)
# VH: B1 VH with Q1E, M48I, M70L, R72T, T74K, S84R, E89D
# VL: B1 VL
# notes: as for B1
# B4: TPP-5356, Hu6C12-24 Fab variant VL: (F35Y, Y70F) (Fab, V domains shown)
# VH: B1 VH with Q1E, M48I, M70L, R72T, T74K, S84R, E89D, A97Q, R98T
# VL: B1 VL with F35Y, Y70F
# notes: as for B1
# B5: TPP-5322 (Fab, V domains shown)
# VH: B1 VH with Q1E, M48I, S55G, M70L, R72T, T74K, S84R, E89D, A97Q, R98T
# VL: B1 VL
# notes: also called VH: (S55G)
# B6: TPP-5357 (Fab, V domains shown)
# VH: B1 VH with Q1E, M48I, M70L, R72T, T74K, S84R, E89D, A97Q, R98T
# VL: DIQLTQSPSFLSASVGDRVTITCRAASSVSSYIYWFQQKPGKAPKLLIYSTSTLPSGVPSRFSGSGSGTEYTLTISSLQPEDFATYYCHQRNSFPFTFGQGTKLEIKR
# notes: also called VL: (S24R)#
# B7: TPP-5342 (Fab, V domains shown)
# VH: B1 VH with Q1E, M48I, M70L, R72T, T74K, S84R, E89D, A97Q, R98T
# VL: B1 VL with S27Q
# notes: also called VL: (S27Q)
# B8: TPP-5343 (Fab, V domains shown)
# VH: B1 VH with Q1E, M48I, M70L, R72T, T74K, S84R, E89D, A97Q, R98T
# VL: B1 VL with S28G
# notes: also called VL: (S28G)
# B9: TPP-5334 (Fab, V domains shown)
# VH: B1 VH with Q1E, M48I, M70L, R72T, T74K, S84R, A97Q, R98T
# VL: B1 VL
# notes: also called VH: (D89E)
# B10: TPP-5323 (Fab, V domains shown)
# VH: B1 VH with Q1E, M48I, D56G, M70L, R72T, T74K, S84R, E89D, A97Q, R98T
# VL: B1 VL
# notes: also called VH: (D56G)
# B11: TPP-5335 (Fab, V domains shown)
# VH: B1 VH with Q1E, M48I, M70L, R72T, T74K, S84R, E89D, R98T
# VL: B1 VL
# notes: also called VH: (Q97A)
# B12: TPP-5347 (Fab, V domains shown)
# VH: B1 VH with Q1E, M48I, M70L, R72T, T74K, S84R, E89D, A97Q, R98T
# VL: B1 VL with F35Y
# notes: also called VL: (F35Y)
# B13: TPP-5324 (Fab, V domains shown)
# VH: B1 VH with Q1E, M48I, Y57S, M70L, R72T, T74K, S84R, E89D, A97Q, R98T
# VL: B1 VL
# notes: also called VH: (Y57S)
# B14: TPP-5326 (Fab, V domains shown)
# VH: B1 VH with Q1E, M48I, N61A, M70L, R72T, T74K, S84R, E89D, A97Q, R98T
# VL: B1 VL
# notes: also called VH: (N61A)
# B15: TPP-5345 (Fab, V domains shown)
# VH: B1 VH with Q1E, M48I, M70L, R72T, T74K, S84R, E89D, A97Q, R98T
# VL: B1 VL with I32L
# notes: also called VL: (I32L)
# B16: TPP-5329 (Fab, V domains shown)
# VH: B1 VH with Q1E, M48I, D66G, M70L, R72T, T74K, S84R, E89D, A97Q, R98T
# VL: B1 VL
# notes: also called VH: (D66G)
# B17: TPP-5332 (Fab, V domains shown)
# VH: B1 VH with Q1E, M48I, M70L, R72T, S84R, E89D, A97Q, R98T
# VL: B1 VL
# notes: also called VH: (K74T)
# B18: TPP-5351 (Fab, V domains shown)
# VH: B1 VH with Q1E, M48I, M70L, R72T, T74K, S84R, E89D, A97Q, R98T
# VL: B1 VL with Y70F
# notes: also called VL: (Y70F)
# B19: TPP-5333 (Fab, V domains shown)
# VH: B1 VH with Q1E, M48I, M70L, R72T, T74K, E89D, A97Q, R98T
# VL: B1 VL
# notes: also called VH: (R84S)
# B20: TPP-5354 (Fab, V domains shown)
# VH: B1 VH with Q1E, M48I, M70L, R72T, T74K, S84R, E89D, A97Q, R98T
# VL: B1 VL with F93Y
# notes: also called VL: (F93Y)
# B21: TPP-5327 (Fab, V domains shown)
# VH: B1 VH with Q1E, M48I, P62Q, M70L, R72T, T74K, S84R, E89D, A97Q, R98T
# VL: B1 VL
# notes: also called VH: (P62Q)
# B22: TPP-5352 (Fab, V domains shown)
# VH: B1 VH with Q1E, M48I, M70L, R72T, T74K, S84R, E89D, A97Q, R98T
# VL: B1 VL with H88Q
# notes: also called VL: (H88Q)
# B23: TPP-5344 (Fab, V domains shown)
# VH: B1 VH with Q1E, M48I, M70L, R72T, T74K, S84R, E89D, A97Q, R98T
# VL: B1 VL with V29I
# notes: also called VL: (V29I)
# B24: TPP-5330 (Fab, V domains shown)
# VH: B1 VH with Q1E, M48I, R72T, T74K, S84R, E89D, A97Q, R98T
# VL: B1 VL
# notes: also called VH: (L70M)
# B25: TPP-5355 (Fab, V domains shown)
# VH: B1 VH with Q1E, M48I, M70L, R72T, T74K, S84R, E89D, A97Q, R98T
# VL: B1 VL with F95Y
# notes: also called VL: (F95Y)
# B26: TPP-5331 (Fab, V domains shown)
# VH: B1 VH with Q1E, M48I, M70L, T74K, S84R, E89D, A97Q, R98T
# VL: B1 VL
# notes: also called VH: (T72R)
# B27: TPP-5328 (Fab, V domains shown)
# VH: B1 VH with Q1E, M48I, K65Q, M70L, R72T, T74K, S84R, E89D, A97Q, R98T
# VL: B1 VL
# notes: also called VH: (K65Q)
# B28: TPP-7791, affinity matured 6C12 Fab (Fab, V domains shown)
# VH: B1 VH with Q1E, T33A, D56G, D66H, T74K, S84R, E89D, A97W, R98T
# VL: DIQLTQSPSFLSASVGDRVTITCRASSSVRYIYWFQQKPGKAPKLLIYATSTLRSGVPSRFSGSGSGTEYTLTISSLQPEDFATYYCHQRNSFPYTFGQGTKLEIK
# notes: Tested as Fab
# Target: T1, recombinant human glycophorin A …
# Assay: ELISA, Fab on coated recombinant human GPA ectodomain
row,binding in ELISA relative to parental Fab,Binder
1,0 relative to parental Fab,B1
2,0.4 relative to parental Fab,B2
3,0.1 relative to parental Fab,B3
4,0.6 relative to parental Fab,B4

# Target: T2, recombinant human GPA ectodomain
# Assay: ELISA, rec hGPA ectodomain
row,binding by ELISA relative to parental,Binder
1,0.91,B5
2,0.23,B6
3,0.95,B7
4,0.97,B8
5,0.89,B9
6,1.64,B10
7,0.83,B11
8,0.35,B12
9,0.34,B13
10,0.53,B14
11,0.48,B15
12,1.12,B16
13,0.87,B17
14,0.78,B18
15,0.97,B19
16,0.17,B20
17,0.99,B21
18,0.26,B22
19,0.77,B23
20,1.29,B24
21,1.35,B25
22,1.07,B26
23,0.91,B27

# Target: T3, human glycophorin A on human red blood …
# Assay: SPR (Biacore), Fab on human RBC membranes;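 further: human RBC membranes captured on an L1 sensor chip, Fab fragments passed over as analyte, binding kinetics read by surface plasmon resonance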
# Procedure: Kinetic analysis of the antibody binding to human red blood cell membranes was also performed using surface plasmon resonance (SPR) using a Biacore instrument. In this assay membranes prepared from human red blood cells were attached to a L1 sensor matrix and antibodies were flowed over the RBC membranes.
# The binding kinetics of the affinity matured Fab antibodies was also measured.
row,binding result,Binder
1,binds,B28

# Target: T4, native human glycophorin A protein
# Assay: ELISA, Fab on coated native human GPA
row,binding in ELISA relative to parental Fab,Binder
1,0 relative to parental Fab,B1
2,0.5 relative to parental Fab,B2
3,0.1 relative to parental Fab,B3
4,0.7 relative to parental Fab,B4

# Target: T5, purified human glycophorin A protein …
# Assay: ELISA, native hGPA
row,binding by ELISA relative to parental,Binder
1,0.86,B5
2,0.23,B6
3,0.91,B7
4,0.95,B8
5,0.8,B9
6,1.49,B10
7,0.77,B11
8,0.52,B12
9,0.53,B13
10,0.56,B14
11,0.6,B15
12,1.02,B16
13,0.83,B17
14,0.71,B18
15,0.92,B19
16,0.33,B20
17,0.98,B21
18,0.36,B22
19,0.84,B23
20,1.2,B24
21,1.16,B25
22,1.11,B26
23,0.89,B27

# Target: T3, human glycophorin A on human red blood …
# Assay: ELISA, Fab on coated human RBC membranes
# Procedure: These membranes are prepared by first isolating red blood cells from citrated whole blood. Citrated whole blood is layered on to Ficol and centrifuged at low speed for 20 minutes to pellet the red blood cells. The supernatant containing plasma and other blood cells is discarded and the red blood cell pellet is subsequently washed 3 times in 10 cell volumes of phosphate buffered saline (PBS). A 10 ml pellet of purified red blood cells is resuspended in 30 ml of cold low osmorality 20 mM phosphate buffer (pH7.4) and incubated for 30 mins to break open the RBC. After Centrifugation at 10,000 rpm for 30 min at 5° C. the hemoglobin containing supernatant is discarded. To the membrane pellet another 30 ml of 20 mM phosphate buffer is added and the sample centrifuged again at 10,000 rpm for 30 min at 5° C. to pellet the membrane fraction. This wash and centrifugation step is repeated another 4 times. The red blood cell membranes are then resuspended in 20 mL of PBS to achieve an equivalent of approximately 2.5E9 cells/mL and stored frozen at −20° C. Binding of antibodies to RBC ghost can be measured by ELISA in which the RBC ghost suspension (5×10⁶ in 100 ul PBS) was added to each well of flat bottom 96-well ELISA microtiter plates (2HB, Immunolon) and the plates incubated overnight at 4° C. The plates were blocked with Starting blocking buffer (Thermo Fisher) for 2 hours at room temperature (RT). Antibodies or other test molecules were added to each well and incubated for 1.5 hours at RT. After 4 washes 100 ul of an appropriate detection antibody was added to each well and incubated for 1 hour at RT. After 4 washes the detection antibody was measured using appropriate detection reagents.
row,binding in ELISA relative to parental Fab,Binder
1,0.5 relative to parental Fab,B2
2,0.3 relative to parental Fab,B3
3,0.7 relative to parental Fab,B4

# Target: T6, human glycophorin A in the red blood …
# Assay: ELISA, human RBC membranes;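 further: antibodies bound to isolated human red blood cell membrane ghosts coated on 96-well plates, tested 1.5 h at room temperature, bound antibody quantified with a detection antibody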
# Procedure: In order to evaluate binding of antibodies to GPA in the native context of the red blood cell membrane we made use of isolated red blood cell membranes, also called red blood cells ghosts. These membranes are prepared by first isolating red blood cells from citrated whole blood. Citrated whole blood is layered on to Ficol and centrifuged at low speed for 20 minutes to pellet the red blood cells. The supernatant containing plasma and other blood cells is discarded and the red blood cell pellet is subsequently washed 3 times in 10 cell volumes of phosphate buffered saline (PBS). A 10 ml pellet of purified red blood cells is resuspended in 30 ml of cold low osmorality 20 mM phosphate buffer (pH7.4) and incubated for 30 mins to break open the RBC. After Centrifugation at 10,000 rpm for 30 min at 5° C. the hemoglobin containing supernatant is discarded. To the membrane pellet another 30 ml of 20 mM phosphate buffer is added and the sample centrifuged again at 10,000 rpm for 30 min at 5° C. to pellet the membrane fraction. This wash and centrifugation step is repeated another 4 times. The red blood cell membranes are then resuspended in 20 mL of PBS to achieve an equivalent of approximately 2.5E9 cells/mL and stored frozen at −20° C. Binding of antibodies to RBC ghost can be measured by ELISA in which the RBC ghost suspension (5×10⁶ in 100 ul PBS) was added to each well of flat bottom 96-well ELISA microtiter plates (2HB, Immunolon) and the plates incubated overnight at 4° C. The plates were blocked with Starting blocking buffer (Thermo Fisher) for 2 hours at room temperature (RT). Antibodies or other test molecules were added to each well and incubated for 1.5 hours at RT. After 4 washes 100 ul of an appropriate detection antibody was added to each well and incubated for 1 hour at RT. After 4 washes the detection antibody was measured using appropriate detection reagents.
row,binding by ELISA relative to parental,Binder
1,0.82,B5
2,0.37,B6
3,0.75,B7
4,0.71,B8
5,0.72,B9
6,1.72,B10
7,0.65,B11
8,0.43,B12
9,0.41,B13
10,0.45,B14
11,0.43,B15
12,1,B16
13,0.58,B17
14,0.71,B18
15,0.59,B19
16,0.35,B20
17,0.74,B21
18,0.34,B22
19,0.6,B23
20,0.91,B24
21,1.18,B25
22,0.96,B26
23,0.61,B27
